Measured values: patent US8618251

What was measured:
soluble hFcγRIIB (human) [1] = target: soluble hFcγRIIB (human) (UniProt P31994); test: SPR Biacore T100; reference of the fold not given
[2] = target: soluble hFcγRIIA^131R (human) (UniProt P12318); test: SPR Biacore T100; reference of the fold not given
[3] = target: soluble hFcγRIIA^131H (human) (UniProt P12318); test: SPR Biacore T100; reference of the fold not given
soluble hFcγRIIB (human) [4] = target: soluble hFcγRIIB (human) (UniProt P31994); test: SPR Biacore T100, steady state, antibody immobilised
[5] = target: soluble hFcγRIIA^131R (human) (UniProt P12318); test: as above
[6] = target: soluble hFcγRIIA^131H (human) (UniProt P12318); test: as above

Sequence of soluble hFcγRIIA^131H (human) (P12318 34-217): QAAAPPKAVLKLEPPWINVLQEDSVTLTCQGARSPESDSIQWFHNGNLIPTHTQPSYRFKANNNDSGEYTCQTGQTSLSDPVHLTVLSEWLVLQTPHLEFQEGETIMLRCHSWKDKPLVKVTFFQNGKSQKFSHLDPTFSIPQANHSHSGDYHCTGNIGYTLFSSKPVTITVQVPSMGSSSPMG
Sequence of soluble hFcγRIIB (human) (P31994 43-217 limits assumed): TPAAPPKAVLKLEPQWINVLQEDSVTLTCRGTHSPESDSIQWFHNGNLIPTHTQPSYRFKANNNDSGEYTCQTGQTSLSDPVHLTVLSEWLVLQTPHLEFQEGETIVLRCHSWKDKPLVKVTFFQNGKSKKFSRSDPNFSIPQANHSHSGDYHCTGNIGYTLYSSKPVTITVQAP
Sequence of soluble hFcγRIIA^131R (human) (P12318 34-217 H167R): as the sequence (P12318 34-217) above, with H134R counted along it

Fold change in affinity (soluble hFcγRIIB (human) [1]): 1.3 fold
Fold change in affinity [2]: 7.4 fold
Fold change in affinity [3]: 2.6 fold
Kd (soluble hFcγRIIB (human) [4]): 8.48 µM
Kd [5]: 0.781 µM
Kd [6]: 1.34 µM
B1: 4-4-20 hIgG1 Fc mutant L163P-S183G-K222E-G236A-N276D-S298G-T299A-D312G (antibody, part only; not given: 4-4-20 variable domains, not shown: another chain or arm of the molecule)
constant: ASTKGPSVFPLAPSSKSTSGGTAALGCLVKDYFPEPVTVSWNSGAPTSGVHTFPAVLQSSGLYSLGSVVTVPSSSLGTQTYICNVNHKPSNTKVDKRVEPKSCDETHTCPPCPAPELLAGPSVFLFPPKPKDTLMISRTPEVTCVVVDVSHEDPEVKFDWYVDGVEVHNAKTKPREEQYNGAYRVVSVLTVLHQGWLNGKEYKCKVSNKALPAPIEKTISKAKGQPREPQVYTLPPSRDELTKNQVSLTCLVKGFYPSDIAVEWESNGQPENNYKTTPPVLDSDGSFFLYSKLTVDKSRWQQGNVFSCSVMHEALHNHYTQKSLSLSPGK
